# Laboratory results published in article PMC6856128 (Scientific Reports, 2019).
# Target: the molecule itself
# Test: SEC
protein,measurement,value
Mycobacterium tuberculosis CysA2 (enzyme) MARCDVLVSADWAESNLHAPKVVFVEVDEDTSAYDRDHIAGAIKLDWRTDLQDPVKRDFVDAQQFSKLLSERGIANEDTVILYGGNNNWFAAYAYWYFKLYGHEKVKLLDGGRKKWELDGRPLSSDPVSRPVTSYTASPPDNTIRAFRDEVLAAINVKNLIDVRSPDEFSGKILAPAHLPQEQSQRPGHIPGAINVPWSRAANEDGTFKSDEELAKLYADAGLDNSKETIAYCRIGERSSHTWFVLRELLGHQNVKNYDGSWTEYGSLVGAPIELGS,stoichiometry N,2
